Laboratory results taken from US20120220489A1.
One block for each substance: values may come before it.

Key:
[1] = target: Histone H3 recombinant protein, human, Upstate 14-494 (human) (UniProt P68431); assay: RPA standard curve, assay 1, LOD back-calculated from one-site fit
[2] = target: Histone H3-BSA 2.7x peptide-protein conjugate (bovine); assay: RPA standard curve, assay 2, LOD back-calculated from one-site fit
[3] = target: Histone H3 recombinant protein, human, Upstate 14-494 (human) (UniProt P68431); assay: as above
[4] = target: ERK1 (p44) inactive (GST tagged), human, Invitrogen PV 3312 (human) (UniProt P27361); assay: RPA standard curve, assay 1, LOD back-calculated from one-site fit
[5] = target: pErk1/2-BSA 2.7x peptide-protein conjugate (human; bovine); assay: RPA, 8 point dilution series of the peptide standard in buffer, assay 2
[6] = target: Erk1-BSA 2.7x peptide-protein conjugate (human; bovine); assay: RPA standard curve, assay 2, LOD back-calculated from one-site fit
[7] = target: ERK1 (p44) inactive (GST tagged), human, Invitrogen PV 3312 (human) (UniProt P27361); assay: as above
[8] = target: pErk1/2-BSA 2.7x peptide-protein conjugate (human; bovine); assay: as above

Chain of UniProt P27361 (P27361 whole entry): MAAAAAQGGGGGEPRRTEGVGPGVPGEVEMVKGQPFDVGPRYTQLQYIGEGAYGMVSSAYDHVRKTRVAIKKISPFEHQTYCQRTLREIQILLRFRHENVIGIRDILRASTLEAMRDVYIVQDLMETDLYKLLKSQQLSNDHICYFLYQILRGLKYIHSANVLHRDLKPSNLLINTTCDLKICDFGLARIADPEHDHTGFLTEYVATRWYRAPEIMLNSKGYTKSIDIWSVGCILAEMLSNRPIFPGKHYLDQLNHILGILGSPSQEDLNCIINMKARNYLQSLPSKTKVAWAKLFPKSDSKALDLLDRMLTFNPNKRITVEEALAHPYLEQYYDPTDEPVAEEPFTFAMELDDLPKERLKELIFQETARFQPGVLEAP
Chain of pErk1/2-BSA 2.7x peptide-protein conjugate (human; bovine) (P02769 25-607 limits assumed): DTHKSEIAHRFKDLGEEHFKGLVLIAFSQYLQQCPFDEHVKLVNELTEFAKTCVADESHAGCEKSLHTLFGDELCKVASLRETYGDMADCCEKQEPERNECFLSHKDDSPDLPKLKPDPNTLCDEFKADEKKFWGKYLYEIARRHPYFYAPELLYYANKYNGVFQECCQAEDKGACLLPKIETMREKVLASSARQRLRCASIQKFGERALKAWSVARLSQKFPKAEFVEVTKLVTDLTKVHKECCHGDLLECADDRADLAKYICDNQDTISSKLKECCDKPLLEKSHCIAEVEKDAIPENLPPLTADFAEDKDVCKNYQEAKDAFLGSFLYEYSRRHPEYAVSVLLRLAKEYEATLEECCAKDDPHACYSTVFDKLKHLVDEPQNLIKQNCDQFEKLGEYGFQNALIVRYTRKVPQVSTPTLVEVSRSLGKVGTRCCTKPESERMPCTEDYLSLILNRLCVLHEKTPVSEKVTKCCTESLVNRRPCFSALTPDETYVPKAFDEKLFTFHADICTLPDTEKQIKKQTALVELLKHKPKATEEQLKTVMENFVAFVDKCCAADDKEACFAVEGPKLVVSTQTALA
Chain of Histone H3-BSA 2.7x peptide-protein conjugate (bovine) (P02769 25-607 limits assumed): as above
Chain of Erk1-BSA 2.7x peptide-protein conjugate (human; bovine) (peptide, as listed by the source limits assumed, chain 1 of 2): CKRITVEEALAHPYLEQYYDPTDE
Chain of Erk1-BSA 2.7x peptide-protein conjugate (human; bovine) (P02769 25-607 limits assumed, chain 2 of 2): as the sequence (P02769 25-607 limits assumed) above

LOD [1]: 0.133 nM
LOD [2]: 0.141 nM
LOD [3]: 0.178 nM
Substance: Histone H3 antibody, Abcam ab1791

LOD [4]: 0.059 nM
mean signal (standard curve) [5]: 0.008 RFI
LOD [6]: 0.046 nM
LOD [7]: 0.084 nM
Substance: p44/42 MAPK (Erk1/2) antibody, Biosource 44-654G

LOD [8]: 0.032 nM
Substance: p44/42 MAPK phospho (pERK1/2) Thr202/Tyr204 antibody, Cell Signaling Technology #9101
